For two molecules, cell aggregation index: HEK293T cells with LAR variant + mCherry mixed with HEK293T cells with NGL-3 (NGL-3-CFP, whole on cells, not the Fc fusion) + GFP; decrease against WT LAR and Kd results are on record in publication PMC12155224, “Rare missense variants of the leukocyte common antigen related receptor (LAR) display reduced activity in transcellular adhesion and synapse formation” (Research Square, 2025).

Assay [1] addresses LAR P381L, full length (human) (UniProt P10586).
The target of assay [2] is LAR P417L, full length (human) (UniProt P10586).
For assay [3], the target named is LAR V389M, full length (human) (UniProt P10586).
Assay [4] addresses T1, NGL-3 ECD (extracellular domain of Netrin-G ligand 3, Fc cleaved off) (UniProt Q9NT99 36-576).
T1 construct: after cleavage LEVLFQ should remain at the C-terminus (surmised); source: ExpiCHO-S, purified (Protein A, Fc cleaved off with 3C protease, SEC); not shown: Fc, C-terminal, cleaved
T1 sequence (looked up): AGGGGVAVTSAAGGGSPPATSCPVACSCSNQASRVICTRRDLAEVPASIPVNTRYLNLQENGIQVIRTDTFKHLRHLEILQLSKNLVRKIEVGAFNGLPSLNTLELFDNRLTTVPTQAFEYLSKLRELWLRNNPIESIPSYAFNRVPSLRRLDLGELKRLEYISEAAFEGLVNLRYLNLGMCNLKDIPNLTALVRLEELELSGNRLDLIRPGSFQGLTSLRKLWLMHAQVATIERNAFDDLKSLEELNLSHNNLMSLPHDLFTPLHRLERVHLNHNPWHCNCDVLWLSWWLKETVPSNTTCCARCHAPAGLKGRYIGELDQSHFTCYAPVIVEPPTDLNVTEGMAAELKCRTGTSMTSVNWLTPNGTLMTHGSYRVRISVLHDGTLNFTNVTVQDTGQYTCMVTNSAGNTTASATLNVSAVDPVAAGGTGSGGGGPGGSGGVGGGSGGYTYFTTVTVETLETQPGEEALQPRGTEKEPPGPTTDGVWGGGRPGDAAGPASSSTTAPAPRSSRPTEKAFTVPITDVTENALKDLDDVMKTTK
Briefly: MST; His-tagged LAR FN1–4 labelled with RED-tris-NTA, 100 nM; NGL-3 in 1:1 dilution series; 25 mM HEPES pH 7.5, 150 mM NaCl, 0.005 % Tween20; 1 h at RT; Monolith NT.115, medium MST power; MST on time 2.5 s; 1:1 KD model. The conditions noted are these: both partners purified.

“NGL-3-Fc (soluble fusion of the NGL-3 extracellular domain with Fc) (from UniProt Q9NT99 36-576)”: the cell aggregation index: HEK293T cells with LAR variant + mCherry mixed with HEK293T cells with NGL-3 (NGL-3-CFP, whole on cells, not the Fc fusion) + GFP; decrease against WT LAR in assay [1], in assay [2] and in assay [3] was over 50 % decrease in each case.

B1: LAR FN1–4 WT (recombinant fibronectin III domains 1–4 of human LAR) (domain or fragment)
chain: PKPPIDLVVTETTATSVTLTWDSGNSEPVTYYGIQYRAAGTEGPFQEVDGVATTRYSIGGLSPFSEYAFRVLAVNSIGRGPPSEAVRARTGEQAPSSPPRRVQARMLSASTMLVQWEPPEEPNGLVRGYRVYYTPDSRRPPNAWHKHNTDAGLLTTVGSLLPGITYSLRVLAFTAVGDGPPSPTIQVKTQQGVPAQPADFQAEVESDTRIQLSWLLPPQERIIMYELVYWAAEDEDQQHKVTFDPTSSYTLEDLKPDTLYRFQLAARSDMGVGVFTPTIEARTAQSTPSAPPQKVMCVSMGSTTVRVSWVPPPADSRNGVITQYSVAYEAVDGEDRGRHVVDGISREHSSWDLVGLEKWTEYRVWVRAHTDVGPGPESSPVLVRTDED
modifications: RED-tris-NTA 2nd generation dye on the His tag
notes: leukocyte common antigen related receptor (LAR, PTPRF), human, FN1–4 domains; TEV cleavage site between the His tag and the domains; also called WT LAR FN1–4; LAR FN1–4 domain; source: E. coli BL21(DE3), purified (HisTrap HP or Talon beads, SEC); not shown: His6, N-terminal, kept
A word on the Kd: it is the concentration at which binding is half-saturated. Read a high Kd as lower affinity. In turn, B1 displayed a Kd in assay [4] of 3.68 µM.
